Data from patent publication US20120076815A1.

Biological target: recombinant TcPRACA proline racemase of Trypanosoma cruzi (subunit) (Trypanosoma cruzi) (UniProt Q4DA80)
Experiment: cell-based or functional assay

recombinant TcPRACA proline racemase of Trypanosoma cruzi (subunit) (from UniProt Q4DA80 30-423) (enzyme)
% racemization (fraction B1, start of the dimer peak): 35.5%
% racemization (fraction B2, dimer peak, about 80 kDa): 62.9%
% racemization (fraction B4, monomer peak, about 43 kDa): 0.7%
% racemization (fraction B5, end of the monomer peak): 0%
